System: tet operator sequence
Test: β-galactosidase activity of a tetracycline-regulated promoter in transformed E. coli with revTetR, in the presence and absence of anhydrotetracycline (atc)
Assay type: cell-based, Escherichia coli
Conditions: for Relative Activity of revTetR repressors, 28° C. ratio (non-repressed to repressed levels of transcription) / Relative Activity of revTetR repressors, 37° C. ratio (non-repressed to repressed levels of transcription): E. coli, absence vs presence of anhydrotetracycline; for β-Galactosidase Activity, Cultured Without ATC: RevTetR isolate cultured in the absence of anhydrotetracycline (ATC); for β-Galactosidase Activity, Cultured With ATC: RevTetR isolate cultured in the presence of anhydrotetracycline (ATC)
Method: The relative activity of revTetR repressors was determined at 28° C. and 37° C. for each clone by measuring β-galactosidase activity of a tetracycline-regulated promoter in transformed Escherichia coli in the presence and absence of the tetracycline analog, anhydrotetracycline (atc). The relative β-galactosidase activity was measured in standard Miller units and is presented as the percent of maximal expression as measured in the absence of Tet repressor. […] With respect to each mutant, as well as the wild-type controls, FIG. 2 provides two horizontal bars; the upper horizontal bar represents the level of β-galactosidase activity in the absence of anhydrotetracycline (−atc) while the lower horizontal bar represents the level of β-galactosidase activity in the presence of anhydrotetracycline (+atc).
The pool of mutated Tet repressors was cloned into plasmid pWH1411 (Baumeister et al., 1992, Proteins: Struct. Funct. Genet. 14: 168-77), which carries a TetR(B) gene, to provide a TetR(BD) chimera that included, as the amino-terminal portion, amino acid residues 1 to 50 of the TetR(B) gene and, as the carboxyl-terminal portion, amino acid residues 51 to 208 of the TetR(D) gene. The resulting plasmid pool was screened in a genetic assay which positively selects for a functional interaction between a Tet repressor and its cognate operator using E. coli strain WH207(λWH25) (the construction of this strain is described in detail in Wissmann et al., (1991) Genetics 128: 225-32). In this E. coli strain, tet operators direct the expression of divergently arranged β-galactosidase (lacZ) and Lac repressor (lacI) genes and the lac regulatory region directs the expression of a galactokinase (galK) gene on plasmid pWH414. Binding of Tet repressors to tet operators turns off transcription of the lacI and lacZ genes. The absence of Lac repressor allows for expression of the galK gene, which enables the E. coli strain to use galactose as a sole carbon source, which serves as one marker. The lacZ^− phenotype serves as a second marker. Thus, bacteria containing Tet repressors which bind to tet operators, have a Gal^+, lacZ^− phenotype. Bacteria containing wild-type Tet repressors have a Gal^+, lacZ^− phenotype in the absence of tetracycline. Modified “reverse” Tet repressors (revTetR) were selected based upon a Gal^+, lacZ^− phenotype in the presence of tetracycline.
The ability of each revTetR clone to bind to its cognate tet operator sequence and regulate transcription in a prokaryotic organism, Escherichia coli, in the presence and absence of a tetracycline analog (anhydrotetracycline, atc) was determined (Table 3, FIG. 2). The relative ratios of non-repressed to repressed levels of transcription for the 15 clones range from about 1.4-fold to about 50-fold at 28° C. and from about 1.3-fold to 40-fold at 37° C. For example, clone 4b comprising an amino acid substitution of glutamic acid for glycine at position 96 (e.g., SEQ ID NO. 24) repressed transcription 19-fold at 37° C. but to a less extent at 28° C. (5.7-fold, Table 3). Furthermore, clones 14, 5a and 7 comprising the arginine for glycine substitution at position 96 and further comprising a substitution or substitutions of serine for threonine at position 103 and valine for glutamic acid at position 114; leucine for proline at position 159; or glutamine to histidine at position 188, respectively, have pronouncedly different activities.
wherein each underlined base was present in approximately 85% of the oligonucleotides, while the remaining approximately 15% of the oligonucleotides contained one of the other three, non-wild type bases at that position. Similar mutagenic, partially randomized oligonucleotides were prepared for mutagenesis of the coding regions for amino acids 14-25 and 93-102. It was predicted that, according to a binomial distribution, each oligonucleotide would contain three to four mutations. […]

Row | Molecule | repression of transcription (ratio of non-repressed to repressed levels of transcription) (28° C.) | Relative Activity of revTetR repressors, 28° C. ratio (non-repressed to repressed levels of transcription) (28° C.) | repression of transcription (ratio of non-repressed to repressed levels of transcription) (37° C.) | Relative Activity of revTetR repressors, 37° C. ratio (non-repressed to repressed levels of transcription) (37° C.) | β-Galactosidase Activity, Cultured Without ATC | β-Galactosidase Activity, Cultured With ATC
1 | Clone 4b (protein, revTetR4b) MSRLDKSKVINSALELLNEVGIEGLTTRKLAQKLGVEQPTLYWHVKNKRALLDALAVEILARHHDYSLPAAGESWQSFLRNNAMSFRRALLRYRDRAKVHLGTRPDEKQYDTVETQLRFMTENGFSLRDGLYAISAVSHFTLGAVLEQQEHTAALTDRPAAPDENLPPLLREALQIMDSDDGEQAFLHGLESLIRGFEVQLTALLQIV | 5.7 fold | 5.7 | 19 fold | 19.0 |  | 
2 | TetRrevAD2/4: revTetR(BD) L17F N18R D53N I59M A61T (protein, Modified tetracycline repressor, revTetR(BD) L17F N18R D53N I59M A61T) MSRLDKSKVINSALELFREVGIEGLTTRKLAQKLGVEQPTLYWHVKNKRALLNALAVEMLTRHHDYSLPAAGESWQSFLRNNAMSFRRALLRYRDGAKVHLGTRPDEKQYDTVETQLRFMTENGFSLRDGLYAISAVSHFTLGAVLEQQEHTAALTDRPAAPDENLPPLLREALQIMDSDDGEQAFLHGLESLIRGFEVQLTALLQIV |  |  |  |  | 32.2603 | 1.0068
3 | TetRrevAF1/8: revTetR(BD) G24G Y93N L101F G102D (protein, Modified tetracycline repressor, revTetR(BD) G24G Y93N L101F G102D) MSRLDKSKVINSALELLNEVGIEGLTTRKLAQKLGVEQPTLYWHVKNKRALLDALAVEILARHHDYSLPAAGESWQSFLRNNAMSFRRALLRNRDGAKVHFDTRPDEKQYDTVETQLRFMTENGFSLRDGLYAISAVSHFTLGAVLEQQEHTAALTDRPAAPDENLPPLLREALQIMDSDDGEQAFLHGLESLIRGFEVQLTALLQIV |  |  |  |  | 42.088 | 1.1643
4 | Clone 11 (protein, revTetR11) MSRLDKSKVINSALELLNEVGIEGLTTRKLAQKLGVEQPTLYWHVKNKRALLDALAVEILARHHDYSLPAAGESWQSFLRNNAMSFRRALLRYRDGAKEHLGTRPDEKQYDTVETQLRFMTENGFSLRDGLYAISAVSHFTLGAVLEQQEHTAALTDRPAAPDENLPPLLREALQIMDSDDGEQAFLHGLESLIRGFEVQLTALLQIV | 18 fold | 18.1 | 41 fold | 41.1 |  | 
5 | TetRrevAF1/7: revTetR(BD) G96R L101I (protein, Modified tetracycline repressor, revTetR(BD) G96R L101I) MSRLDKSKVINSALELLNEVGIEGLTTRKLAQKLGVEQPTLYWHVKNKRALLDALAVEILARHHDYSLPAAGESWQSFLRNNAMSFRRALLRYRDRAKVHIGTRPDEKQYDTVETQLRFMTENGFSLRDGLYAISAVSHFTLGAVLEQQEHTAALTDRPAAPDENLPPLLREALQIMDSDDGEQAFLHGLESLIRGFEVQLTALLQIV |  |  |  |  | 72.199 | 2.2753
6 | TetRrevAD1/6: revTetR(BD) N18Y E23V D53A A54S L55L A56S A61T H63Y (protein, Modified tetracycline repressor, revTetR(BD) N18Y E23V D53A A54S L55L A56S A61T H63Y) MSRLDKSKVINSALELLYEVGIVGLTTRKLAQKLGVEQPTLYWHVKNKRALLASLSVEILTRYHDYSLPAAGESWQSFLRNNAMSFRRALLRYRDGAKVHLGTRPDEKQYDTVETQLRFMTENGFSLRDGLYAISAVSHFTLGAVLEQQEHTAALTDRPAAPDENLPPLLREALQIMDSDDGEQAFLHGLESLIRGFEVQLTALLQIV |  |  |  |  | 85.6043 | 2.5079
7 | TetRrevAD2/6: revTetR(BD) N18Y G21E E23K (protein, Modified tetracycline repressor, revTetR(BD) N18Y G21E E23K) MSRLDKSKVINSALELLYEVEIKGLTTRKLAQKLGVEQPTLYWHVKNKRALLDALAVEILARHHDYSLPAAGESWQSFLRNNAMSFRRALLRYRDGAKVHLGTRPDEKQYDTVETQLRFMTENGFSLRDGLYAISAVSHFTLGAVLEQQEHTAALTDRPAAPDENLPPLLREALQIMDSDDGEQAFLHGLESLIRGFEVQLTALLQIV |  |  |  |  | 89.5374 | 3.8811
8 | TetRrevAF2/5: revTetR(BD) L14R E!9E D95H L101P (protein, Modified tetracycline repressor, revTetR(BD) L14R E!9E D95H L101P) MSRLDKSKVINSARELLNEVGIEGLTTRKLAQKLGVEQPTLYWHVKNKRALLDALAVEILARHHDYSLPAAGESWQSFLRNNAMSFRRALLRYRHGAKVHPGTRPDEKQYDTVETQLRFMTENGFSLRDGLYAISAVSHFTLGAVLEQQEHTAALTDRPAAPDENLPPLLREALQIMDSDDGEQAFLHGLESLIRGFEVQLTALLQIV |  |  |  |  | 97.8373 | 2.4067
9 | TetRrevAD2/12: revTetR(BD) E23H D53Y A56A E58Q I59T (protein, Modified tetracycline repressor, revTetR(BD) E23H D53Y A56A E58Q I59T) MSRLDKSKVINSALELLNEVGIHGLTTRKLAQKLGVEQPTLYWHVKNKRALLYALAVQTLARHHDYSLPAAGESWQSFLRNNAMSFRRALLRYRDGAKVHLGTRPDEKQYDTVETQLRFMTENGFSLRDGLYAISAVSHFTLGAVLEQQEHTAALTDRPAAPDENLPPLLREALQIMDSDDGEQAFLHGLESLIRGFEVQLTALLQIV |  |  |  |  | 73.5981 | 1.2806
10 | TetRrevAD1/2: revTetR(BD) N18Y L52L D53Y A54A I59T (protein, Modified tetracycline repressor, revTetR(BD) N18Y L52L D53Y A54A I59T) MSRLDKSKVINSALELLYEVGIEGLTTRKLAQKLGVEQPTLYWHVKNKRALLYALAVETLARHHDYSLPAAGESWQSFLRNNAMSFRRALLRYRDGAKVHLGTRPDEKQYDTVETQLRFMTENGFSLRDGLYAISAVSHFTLGAVLEQQEHTAALTDRPAAPDENLPPLLREALQIMDSDDGEQAFLHGLESLIRGFEVQLTALLQIV |  |  |  |  | 84.85 | 1.6137
11 | TetRrevAF1/11: revTetR(BD) L14I V20V I22L R94H A97A V99E (protein, Modified tetracycline repressor, revTetR(BD) L14I V20V I22L R94H A97A V99E) MSRLDKSKVINSAIELLNEVGLEGLTTRKLAQKLGVEQPTLYWHVKNKRALLDALAVEILARHHDYSLPAAGESWQSFLRNNAMSFRRALLRYHDGAKEHLGTRPDEKQYDTVETQLRFMTENGFSLRDGLYAISAVSHFTLGAVLEQQEHTAALTDRPAAPDENLPPLLREALQIMDSDDGEQAFLHGLESLIRGFEVQLTALLQIV |  |  |  |  | 96.2362 | 1.1578
